Experimental data from US20090111098A1 (SHIONOGI, published 2009).

T1: peptide GPPGPQG (region corresponding to amino acids 769 to 775 of human type 2 collagen) (human)
T1 construct: The immunogen carried an added N-terminal cysteine and was conjugated to BSA; The DELFIA screen was run as for 6G4
T1 peptide: GPPGPQG

T2: peptide GEPGDDAPS (region corresponding to amino acids 757 to 765 of human type 2 collagen) (human)
T2 construct: The immunogen carried an added C-terminal cysteine and was conjugated to KLH
T2 peptide: GEPGDDAPS

B1: 2E6 antibody (monoclonal antibody produced by hybridoma TAG-2E6) (antibody, V domains shown)
VH: QVTLKESGPGILQPSQTLSLTCSFSGFSLSTYGMGVGWIRQPSGKGLEWLAHIWWNDNKYYNTTLKSRLTISKDTSNKQVFLKIASVDTADTATYYCARIERWDPWFAYWGQGTLVTVSA
VL: DVVMTQTPLSLPVSLGDQASISCRSSQSLVYSNGNTYFHWYLQKPGQSPKLLIYKVSNRFSGVPDRFSGSGSGTDFTLKISRVEAEDLGVYFCSQSTHVPLTFGAGTKLELKR
notes: Mouse monoclonal IgG2b (k), 150 kDa; also called XL665-labeled 2E6 antibody; FERM ABP-10482
B2: 6G4 antibody (monoclonal antibody produced by hybridoma TAG-6G4) (antibody, IgG1, V domains shown)
VH: EVQLVESGGSLVQPGGSLKLSCAASGFTFNNYGMSWVRQIPDKRLELVATITGNGHSTYYPVSVRGRFTISRDNAKNTLYLQMSSLKSEDTAMYYCVRGYSNFAFWGQGTTLTVSS
VL: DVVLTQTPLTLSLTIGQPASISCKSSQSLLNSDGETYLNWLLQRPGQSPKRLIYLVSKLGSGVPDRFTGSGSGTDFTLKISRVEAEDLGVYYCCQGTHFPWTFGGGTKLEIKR
notes: Mouse monoclonal IgG1 (k), 150 kDa; also called cryptate-labeled 6G4 antibody; FERM ABP-10483

Legend:
[1] = target: T1, peptide GPPGPQG (region corresponding …); experiment: property stated for the prepared monoclonal antibody
[2] = target: T2, peptide GEPGDDAPS (region corresponding …); experiment: as above

| Binder | binding result [1] | binding result [2] |
| --- | --- | --- |
| B1 | binds | – |
| B2 | – | binds |
